Target: non-phosphorylated PTEN (n-PTEN)
Assay: fluorescence polarisation

Kd: 120 µM
B1: F-HECT-WWP2 (domain or fragment)
chain: KPYDLRRRLYIIMRGEEGLDYGGIAREWFFLLSHEVLNPMYCLFEYAGKNNYCLQINPASSINPDHLTYFRFIGRFIAMALYHGKFIDTGFTLPFYKRMLNKRPTLKDLESIDPEFYNSIVWIKENNLEECGLELYFIQDMEILGKVTTHELKEGGESIRVTEENKEEYIMLLTDWRFTRGVEEQTKAFLDGFNEVAPLEWLRYFDEKELELMLCGMQEIDMSDWQKSTIYRHYTKNSKQIQWFWQVVKEMDNEKRIRLLQFVTGTCRLPVGGFAELIGSNGPQKFCIDKVGKETWLPRSHTCFNRLDLPPYKSYEQLREKLLYAIEETEGFGQE
modifications: fluorescein on the N-terminal Cys

— paper PMC6093203 (Journal of the American Chemical Society, 2018)
